Source: PMC1343571

Experiments:
[1] = biological target: Human surfactant protein-A (SP-A) (human) (UniProt Q8IWL2); assay: SEC; gel filtration HPLC, two Biosep-SEC-S 4000 columns in series; SP-A (1.62 mg/ml) and α1-AT (1 mg/ml), 1:50 molar ratio, incubated 24 hrs at 37°C in phosphate buffer; eluted with 100 mM Na2HPO4, 2 mM CaCl2, pH 6.8
[2] = biological target: Human surfactant protein-A (SP-A) (human) (UniProt Q8IWL2)

**Q.** Which stoichiometry N (molecules of α1-AT per molecule of SP-A) [1] does the source give for “Wild-type α1-antitrypsin (M α1-AT) (from UniProt P01009 25-418) (natural protein)” here?
**A.** 18

**Q.** What about the turnover number per inactivation of HNE, unmodified SP-A with α1-AT [2] of the same substance?
**A.** 24
